Test results from PMC10985467 (Molecular Cancer Therapeutics, 2024).

Target: CD22 on human lymphoma and leukemia cell lines (Homo sapiens (Human)., UniProt P20273)
Assay: cell-based or functional assay

Sequence of CD22 on human lymphoma and leukemia cell lines (P20273 20-847): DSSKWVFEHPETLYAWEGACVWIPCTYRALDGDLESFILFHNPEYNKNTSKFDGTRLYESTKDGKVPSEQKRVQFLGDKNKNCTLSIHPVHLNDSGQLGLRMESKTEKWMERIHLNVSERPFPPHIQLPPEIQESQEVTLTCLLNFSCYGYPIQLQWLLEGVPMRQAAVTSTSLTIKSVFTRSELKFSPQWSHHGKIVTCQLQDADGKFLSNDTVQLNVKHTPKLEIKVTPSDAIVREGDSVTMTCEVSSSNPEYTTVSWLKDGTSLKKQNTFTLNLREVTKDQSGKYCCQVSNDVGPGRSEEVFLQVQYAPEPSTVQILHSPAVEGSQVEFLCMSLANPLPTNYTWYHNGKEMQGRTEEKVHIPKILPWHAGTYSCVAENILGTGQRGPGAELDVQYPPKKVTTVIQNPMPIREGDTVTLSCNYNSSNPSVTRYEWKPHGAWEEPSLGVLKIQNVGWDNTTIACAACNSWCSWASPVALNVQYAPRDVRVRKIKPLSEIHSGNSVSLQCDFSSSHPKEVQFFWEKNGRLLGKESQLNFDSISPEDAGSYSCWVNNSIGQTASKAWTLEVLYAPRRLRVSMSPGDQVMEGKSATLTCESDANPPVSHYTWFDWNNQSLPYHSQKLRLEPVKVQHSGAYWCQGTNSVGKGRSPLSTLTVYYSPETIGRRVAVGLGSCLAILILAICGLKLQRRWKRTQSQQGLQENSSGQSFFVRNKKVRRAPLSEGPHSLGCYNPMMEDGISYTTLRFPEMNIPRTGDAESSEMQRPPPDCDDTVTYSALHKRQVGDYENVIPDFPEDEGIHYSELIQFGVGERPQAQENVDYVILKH

B1: ADCT-602 (hLL2-C220 site-specifically conjugated to the PBD dimer payload tesirine, SG3249) (antibody, V domains shown)
VH: QVQLVQSGAEVKKPGSSVKVSCKASGYTFTSYWLHWVRQAPGQGLEWIGYINPRNDYTEYNQNFKDKATITADESTNTAYMELSSLRSEDTAFYFCARRDITTFYWGQGTLVTVSS
VL: DIQLTQSPSSLSASVGDRVTMSCKSSQSVLYSANHKNYLAWYQQKPGKAPKLLIYWASTRESGVPSRFSGSGSGTDFTFTISSLQPEDIATYYCHQYLSSWTFGQGTKVEIK
- IC50 of in vitro cytotoxicity (MTS, 96 hours), DO HH-2 cells: 0.06 nM
- IC50 of in vitro cytotoxicity (MTS, 96 hours), Daudi cells: 0.07 nM
- IC50 of in vitro cytotoxicity (MTS, 96 hours), GRANTA-519 cells: 0.02 nM
- IC50 of in vitro cytotoxicity (MTS, 96 hours), MEC-2 cells: 0.18 nM
- IC50 of in vitro cytotoxicity (MTS, 96 hours), NALM-6 cells: 0.11 nM
- IC50 of in vitro cytotoxicity (MTS, 96 hours), NAMALWA cells: 2.27 nM
- IC50 of in vitro cytotoxicity (MTS, 96 hours), REH cells: 0.05 nM
- IC50 of in vitro cytotoxicity (MTS, 96 hours), Ramos cells: 0.06 nM
